Experiment: label from the status in PepcDB records
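Further: failed if final PepcDB status was selected cloned or expressed and not failed if soluble or beyond.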

Sequence | protein production
MRFIITLFLILQLTTLAFSAHSRDKIGLVLSGGGAKGSAHIGVLKVLEQHNIPIDYVVGTSIGAYVGGMYALGYEVSEIEAIMLGMPWDESYSDFIPRESLAYDKKQHRDRYNISIRLGYSDGEFKVPHGLLLGQSAYQILQRSTDTVRSFDSFDDLAIPYRAVASDIATAKMVVLDSGSINEAMKASAAVPGIVAAVEIDGKTLVDGGITNNMPIDVIKAMGADIVIAIDIGSPLAEQSELTSTVSVLNQLSTILTNNTSLAQKALLTDKDILLRPAIDKLSTTDWSVMPEALKLGEQEAQAQSQALMKLAISDVDYQAYKNQKKLKAKKWFDALPRHITKIKINNNSKVENDIIEKVFAVELGKKLTKEALDLAINRVYALDKFEQVTVEFDDSPEGRIITLTTQAKSWGPNYFDFGFNLKTDFSDQSITSINMSYLMTNVSMNGGRWLNELELGWESLLASEFYQPLDHSHDIYSRARVSFAQDKWEKTSFREELRNEYYQATLALGYDYSFKGIIELGVIAETGDLSLDKPGTDDFDYDSYGSFITFGYDTLDSINFPTNGNKLLIEVKWLKDEYSPQLSDVEKDTATTFALDWRGAIGIRGHTFVGIASFATIDNESDFSVHVTELGGFLNLSGYQEDALIGVHKVFAAVVYQYDLGREIPGGSGLPIYLGTSLEAGNVWGGEDRIRYNDLISSGSIYLGTDTSFGPAVLGMGFATSGEHSFFLSIGKNW | failed
MHQLWTYDPAAGTVEVGAGTTNEGLVDGPGEEAWFAQPSGLAATADRLWLADSETSALRWVDLDGAVHTAVGTGLFDFGHRDGDAEQALLQHPLGVTALPDGSVAVSDTYNHALRRYDPATGEVTTLATDLREPSDAVLVGDDIVVVESARHRLTRLRLPEEAVRVASVAHRTQRAATEVAPGRLQLDVIFQAPAGQKLDTRYGPSTRLLVSSTPPELLLNGEGADPDLSRTLELNPAIPEGVLHVSAMAASCDDDPANEYPACHVHQQDWGVPVRLTEGGADRLPLVLAGMDALEHHHHHH | failed
SNGQADRCDRTAYVSGLQPTISDIELFEVFNRVAHVEKVIVRNGAARHALIVFKTVQGLYQVLVNFQGTTLHGRQLHIRPLRESSHANSEAISTMFEKVKHQGNSGNSSYRQEHSFPEYRNQNPQASSYLPPNPRGHRNSTGCFNGGGGGYGRRRSAGGYNQYNQNKYPNETYPGMTLFDNHPVQQYSGFNPIDFRFDDYVEGAKRFDNLANLIRSSTPTDPFANYQKPCESTSTSRSRTNSAKDQKHGPPTWKMELQIKKDDHHHAGGGAATTGQKLSPQQFLAQIAQRQQSEQNADEVAKKKRPNLSVINPSLFYEQYPRTSSPVVYASKSKPSGHYDDKIASPHDPAVLAYSRLRVPQSAFDSLSPIDTDNCSFITKHLGPTTGVKRDLTNDELSDMIVSTGNLRINPTNIDHHDEPAPWSPLKRLRAESGSLSTAQVASPEFSPIKPKTMEFHETEDDVFETGPPPTYLSEGNENAEKKCVEQPKINYDDINNSRLPSNSHSAAPNSEKKHFVFPEYPMCRHSSVPSIAHLVGDLSDFCPHATADEKMLLDEASSIIENTTPAVSTAPAAAPGATMLQI | not failed
GYRALSFPDPLDSQPVQAIAFYPSTGSEHLSIIHGYRVEASEDAPIAMGRFPLLLLSHGNTGTPLALHDLATSLARQGFVVVAVVHPGDNDRDHSRLGSLSNLYGRPLQISEAISTALLDPVLAPYLNARQ | not failed
MVMMFIGIDDTDSPNKYCTTYIATLLIEELKGCGYSVDMPKLIRMNPMVKYKTRGNGGVAIHILDELYSKDKEEIKNITISLVEKYTDFECENTNPGIVFLDEAKYKENREKLTNYYKKVLYDIVSVDYAEKFILKVGGEFIKYKLGRGIIGALGAISSTPPYTYELLAYRKKEMWGKKREIDEKSVIEMDKETFPYTFDNYDYENEKILIAPNTPCPVLFGIRGIDAEILLKAMHKIEGEKPERFMIFKTNHGTDVHLRKMNIKDIYPNTGVIVYGRVVEEPRDIEGGHVIFKLSDGTGEIDCMAYEPTKGFRDIIRKLIVGDYIAVYGTVREKPLGINIEKIKILKLEKKFVKDKRCPYCGGTLKAKGKKAGYKCKKCKKTIAYDEIKMIEVERDLKTGFYEVPGSARRHLSKPIQLIDLI | not failed
MRMTLRQLRIFNEVCDLRSYSRAAEEMSLTQPAVSLQVRQLEELIGQPLFEYVGKKLYMTEAAEALQLASRDIFGRLESLDMQLSDMQGSLQGQLKLAVESSCKYFIPHLFAAFKRQHPEVSLSLMVVNRAQIIRRLSDNRDDLVVMSAVPLDMGLEFLPFLNNPIVAVAPPDHPLSSRETLSLKDLEPWPLLTRETGSGTRRACEEYFKEKRVHFTQTLEVSSSEAQRECVVAGLGLAMLTRHAVCQELATGTLVELPVAELPLYRSWCVVQARDKRLSPVAHAFLAFIRTERAQISQLVERFDGRPQAV | failed
MARAVHRSGLVALGIATALMASCAFAAKDVVVAVGSNFTTLDPYDANDTLSQAVAKSFYQGLFGLDKEMKLKNVLAESYTVSDDGITYTVKLREGIKFQDGTDFNAAAVKANLDRASDPANHLKRYNLYKNIAKTEAIDPTTVKITLKQPFSAFINILAHPATAMISPAALEKYGKEIGFYPVGTGPYELDTWNQTDFVKVKKFAGYWQPGLPKLDSITWRPVADNNTRAAMLQTGEAQFAFPIPYEQATLLEKNKNIELMASPSIMQRYISMNVTQKPFDNPKVREALNYAINRPALVKVAFAGYATPATGVVPPSIAYAQSYKPWPYDPVKARELLKEAGYPNGFSTTLWSSHNHSTAQKVLQFTQQQLAQVGIKAQVTAMDAGQRAAEVEGKGQKESGVRMFYTGWSASTGEADWALSPLFASQNWPPTLFNTAFYSNKQVDDFLAQALKTNDPAEKTRLYKAAQDIIWQESPWIPLVVEKLVSAHSKNLTGFWIMPDTGFSFEDADLQ | not failed
EQMTRDEIEYMLSKSEATLDAEEIEMLQGVFSLDEMMAREVMVPRTDAFMIDINDDPLENIQEILKQSFSRIPVYDVDKDKIIGLIHTKRLLESGFRQGFDQINMRKMLQEPLFVPETIFVDDLLRQLRNTQNQMAILLDEYGGVAGLVTLEDLLEEIVGEID | failed
MAKGGFPGFGGNINNLVKQAQKMQRDMERVQEELKEKTVEASAGGGAVTVVATGRKDIKEITIKPEVVDPDDVEMLQDLILAAVNEALRKADEMVTAEISKITGGLGGIPGLF | not failed
MPLVKRNIDPRHLCHTALPRGIKNELECVTNISLANIIRQLSSLSKYAEDIFGELFNEAHSFSFRVNSLQERVDRLSVSVTQLDPKEEELSLQDITMRKAFRSSTIQDQQLFDRKTLPIPLQETYDVCEQPPPLNILTPYRDDGKEGLKFYTNPSYFFDLW | failed
MDGFVQWMEKHFMPKASVIAAQRHLVAIRDAFVVTMPLMILGALAVLINNIPIPGYEDFLNKIFPMMYNDAPIWKSFGGNIWNGTFAIFAVLVAFLVAHNLVKSYGKDGIAAGTVSVASFFAVGGLEGMGATGLFIALIIALISGELFQRLSGNPKLVIKMPDGVPPAVAKSFAALLPAMITISLFSLITSILFALGIDNIVISFYEAVQQPFMGLANSYPSALLLAFITPFLWFFGLHGANMVDPLMQTINVPAIDANIKALEAGKAIPYIVNKPFFDSFVNLGGTGATLGLLIAIFIVGRRNKPYKVITNLSLAPGLFNINEPVMFGLPIVLNPIMFIPFILVPMVLVTVAYVATATGLVPAATFMPPWVTPPIIGGFLATKSIAGGVLAAVNLLISILIYMPFVKVATDQYLKQEAAAEAAE | failed
MKSSTMTSDYYKQTQIDQTLRLREVLKTLPPFAKDYFRAMEPKSSAKTRINYAYDIRVFFHFLLENNPIYKNYTMDQFRVQDLERIEPVDIEEYMEYLKVYKREDNEMITNGERGLKRKMSALRSFYSYYFKHQYIATNPTLLEHHHHHH | failed
MGHNGIINYEVDVQDNKIEDLKILKHSETSGIFNQVIDKLKQNIITEQSFNVDTISGATVMTQALLKSADKAVTDAGVDVQLEHHHHHH | not failed
MFERFDSDRSRYASLGVVSSLPSGLIDSIWLIIDLNLKGVIPLNDLLHFDLLNNNGKVTVHFSQENSSVEMAIDLPFSYSTAYPSRIFAFDDGHRETILLPAEMLES | not failed
MKHTLVITILIIMFSNGATAEEDKRSINESTTNMIAALQQKQWIHGSQDCKNNQDPAIEVFQYDESSYVLRQNKCLSYEAPFIYVLIGKEKILVVDTGATESAEEFPLYQTVQSLNQKHSDNGKTKEREIVVIHSHSHSDHYSADSQFVGQANVTVVAANNTGVNEFFDFEKWPEQQTNFELGGRSITIIPTPGHQEEAISVYDPQTKWLLTGDTFYPGYIYVKTWQDYKNSIARLVEFTNNHSVSAILGSHIEMTNKAGEYYEIGTIYQPNESSLLLTPSDLTALNEKLQQVDEPEKIAMDSLIVEPLGALPKLISSIAKWFIG | failed
